Measurements: patent US6995018

Target: human complement Factor H (human) (UniProt P08603)
Assay: steady state fluorescence, titration of purified human Factor H with rOPN

human complement Factor H (human), sequence (P08603 19-1231 limits assumed): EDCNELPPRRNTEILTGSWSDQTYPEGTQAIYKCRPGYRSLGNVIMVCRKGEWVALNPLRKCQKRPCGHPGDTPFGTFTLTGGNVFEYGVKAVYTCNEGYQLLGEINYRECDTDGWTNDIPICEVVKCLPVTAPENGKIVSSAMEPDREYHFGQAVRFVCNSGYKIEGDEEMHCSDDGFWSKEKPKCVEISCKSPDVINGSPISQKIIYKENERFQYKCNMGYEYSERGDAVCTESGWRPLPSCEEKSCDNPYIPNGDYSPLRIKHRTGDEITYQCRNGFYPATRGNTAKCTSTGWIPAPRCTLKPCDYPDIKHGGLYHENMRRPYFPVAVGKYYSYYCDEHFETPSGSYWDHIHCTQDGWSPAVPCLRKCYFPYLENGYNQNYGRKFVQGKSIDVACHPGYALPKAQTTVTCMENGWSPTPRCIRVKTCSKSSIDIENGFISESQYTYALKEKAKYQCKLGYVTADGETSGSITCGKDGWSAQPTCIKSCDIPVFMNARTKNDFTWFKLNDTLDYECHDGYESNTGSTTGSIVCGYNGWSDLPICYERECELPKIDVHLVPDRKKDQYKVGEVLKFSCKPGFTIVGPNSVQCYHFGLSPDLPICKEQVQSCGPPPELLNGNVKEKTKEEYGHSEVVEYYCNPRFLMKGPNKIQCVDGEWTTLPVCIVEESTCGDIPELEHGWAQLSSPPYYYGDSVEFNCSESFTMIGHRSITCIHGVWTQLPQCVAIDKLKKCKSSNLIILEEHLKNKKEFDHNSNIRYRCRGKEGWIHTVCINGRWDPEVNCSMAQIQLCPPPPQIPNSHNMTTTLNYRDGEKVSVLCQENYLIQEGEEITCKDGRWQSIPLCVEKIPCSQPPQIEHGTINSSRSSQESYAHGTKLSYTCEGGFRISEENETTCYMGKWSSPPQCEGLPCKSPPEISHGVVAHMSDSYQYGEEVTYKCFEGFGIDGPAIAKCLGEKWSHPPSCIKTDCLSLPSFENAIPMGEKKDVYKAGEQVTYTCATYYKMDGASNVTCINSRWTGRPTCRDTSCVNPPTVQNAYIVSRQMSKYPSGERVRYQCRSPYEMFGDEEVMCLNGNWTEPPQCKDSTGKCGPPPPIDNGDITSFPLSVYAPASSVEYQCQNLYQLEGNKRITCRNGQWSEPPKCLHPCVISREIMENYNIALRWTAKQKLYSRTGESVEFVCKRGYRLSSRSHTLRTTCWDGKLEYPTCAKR

stoichiometry (OPN:Factor H): 1 mol/mol
Substance: recombinant osteopontin (rOPN) (from UniProt P10451 17-300) (ligand)
